The text below walks through data of PMC10621992 (PLOS Pathogens, 2023).

For the experiment, the target named is T1, GST-BLK, prokaryotically expressed and purified (human, UniProt P51451 1-505).
T1 construct: also called purified recombinant BLK; not shown: GST, N-terminal, kept
The experiment can be described thus: pull-down. Particulars: both partners purified.

T1 sequence (P51451 whole entry): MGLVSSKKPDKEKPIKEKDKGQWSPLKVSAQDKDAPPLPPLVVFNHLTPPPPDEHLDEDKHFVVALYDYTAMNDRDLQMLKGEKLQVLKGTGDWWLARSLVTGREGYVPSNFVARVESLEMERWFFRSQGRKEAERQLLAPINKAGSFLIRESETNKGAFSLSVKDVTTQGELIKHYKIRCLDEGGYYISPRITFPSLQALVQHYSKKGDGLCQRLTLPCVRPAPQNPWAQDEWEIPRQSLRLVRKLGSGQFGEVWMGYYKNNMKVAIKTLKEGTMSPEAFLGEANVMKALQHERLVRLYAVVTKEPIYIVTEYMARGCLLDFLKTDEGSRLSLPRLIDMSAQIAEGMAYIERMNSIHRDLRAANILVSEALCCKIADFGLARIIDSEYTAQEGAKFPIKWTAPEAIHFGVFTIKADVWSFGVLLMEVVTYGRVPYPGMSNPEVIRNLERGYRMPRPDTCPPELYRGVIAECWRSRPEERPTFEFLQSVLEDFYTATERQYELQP

B1: IRF3-Flag, purified from HEK293 cells (natural protein, human, UniProt Q14653 1-427, looked up)
chain: MGTPKPRILPWLVSQLDLGQLEGVAWVNKSRTRFRIPWKHGLRQDAQQEDFGIFQAWAEATGAYVPGRDKPDLPTWKRNFRSALNRKEGLRLAEDRSKDPHDPHKIYEFVNSGVGDFSQPDTSPDTNGGGSTSDTQEDILDELLGNMVLAPLPDPGPPSLAVAPEPCPQPLRSPSLDNPTPFPNLGPSENPLKRLLVPGEEWEFEVTAFYRGRQVFQQTISCPEGLRLVGSEVGDRTLPGWPVTLPDPGMSLTDRGVMSYVRHVLSCLGGGLALWRAGQWLWAQRLGHCHTYWAVSEELLPNSGHGPDGEVPKDKEGGVFDLGPFIVDLITFTEGSGRSPRYALWFCVGESWPQDQPWTKRLVMVKVVPTCLRALVEMARVGGASSLENTVDLHISNSHPLSLTSDQYKAYLQDLVEGMDFQGPGES
Turning to B1, the binding result is reported as “binds”.

B2: His-IRF3, prokaryotically expressed and purified (natural protein, human, UniProt Q14653 1-427, looked up)
chain: MGTPKPRILPWLVSQLDLGQLEGVAWVNKSRTRFRIPWKHGLRQDAQQEDFGIFQAWAEATGAYVPGRDKPDLPTWKRNFRSALNRKEGLRLAEDRSKDPHDPHKIYEFVNSGVGDFSQPDTSPDTNGGGSTSDTQEDILDELLGNMVLAPLPDPGPPSLAVAPEPCPQPLRSPSLDNPTPFPNLGPSENPLKRLLVPGEEWEFEVTAFYRGRQVFQQTISCPEGLRLVGSEVGDRTLPGWPVTLPDPGMSLTDRGVMSYVRHVLSCLGGGLALWRAGQWLWAQRLGHCHTYWAVSEELLPNSGHGPDGEVPKDKEGGVFDLGPFIVDLITFTEGSGRSPRYALWFCVGESWPQDQPWTKRLVMVKVVPTCLRALVEMARVGGASSLENTVDLHISNSHPLSLTSDQYKAYLQDLVEGMDFQGPGES
notes: not shown: His, N-terminal, kept
As to B2, the binding result is listed as “binds”.
